Measured values reported in US20240116985A1 (published 2024).
Values belong to the binder of their own block, whether it stands above or below them. Starred links: 1 amine or outer side, 2 acyl side, 3 side chain; linkers in the order of their positions; H or OH if unused. Positions of bridges follow the written chain, without caps; N, C: chain ends. Non-standard residues stand in square brackets, D forms with d. Primed or numbered codes have the meaning given here. B5(16) = 2-amino-2-(pent-4-en-1-yl)hept-6-enoic acid = 2,2-bis(4-pentenyl)glycine (stitching residue), C=CCCCC(CCCC=C)(N[*:1])C(=O)[*:2]; B5(4) = 2,2-bis(4-pentenyl)glycine = 2-amino-2-(pent-4-en-1-yl)hept-6-enoic acid (stitching residue), C=CCCCC(CCCC=C)(N[*:1])C(=O)[*:2]; B5(5) = 2,2-bis(4-pentenyl)glycine, 2-amino-2-(pent-4-en-1-yl)hept-6-enoic acid (stitching residue), C=CCCCC(CCCC=C)(N[*:1])C(=O)[*:2]; PyrS(3) = (S)-1-((allyloxy)carbonyl)-3-aminopyrrolidine-3-carboxylic acid, stapling residue, C=CCOC(=O)N1CC[C@@](N[*:1])(C(=O)[*:2])C1; PyrS″ = (S)-1-((allyloxy)carbonyl)-3-aminopyrrolidine-3-carboxylic acid (stapling residue), C=CCOC(=O)N1CC[C@@](N[*:1])(C(=O)[*:2])C1; B5(21) = 2-amino-2-(pent-4-en-1-yl)hept-6-enoic acid, bis(4-pentenyl)glycine (stitching residue), C=CCCCC(CCCC=C)(N[*:1])C(=O)[*:2]; RdN = (R)-4-(((allyloxy)carbonyl)(methyl)amino)-2-amino-2-methylbutanoic acid, C=CCOC(=O)N(C)CC[C@@](C)(N[*:1])C(=O)[*:2]; PyrS = (S)-1-((allyloxy)carbonyl)-3-aminopyrrolidine-3-carboxylic acid, C=CCOC(=O)N1CC[C@@](N[*:1])(C(=O)[*:2])C1; 6F1NapA = 2-amino-3-(6-fluoronaphthalen-1-yl)propanoic acid, O=C([C@H](Cc1cccc2cc(F)ccc12)N[*:1])[*:2]; Trp(5-cPr) = 5-cyclopropyl-L-tryptophan (5CpW), O=C([C@H](Cc1c[nH]c2ccc(C3CC3)cc12)N[*:1])[*:2]; B5 = 2-amino-2-(pent-4-en-1-yl)hept-6-enoic acid, C=CCCCC(CCCC=C)(N[*:1])C(=O)[*:2]; Trp(5-CF3) = N[C@@H](Cc1c[nH]c2ccc(C(F)(F)F)cc12)C(=O)O; H2Trp = 2,3-dihydrotryptophan (indolin-3-yl alanine); Trp(5-OMe) = COc1ccc2[nH]cc(C[C@H](N)C(=O)O)c2c1; Phe(3-CF3) = N[C@@H](Cc1cccc(C(F)(F)F)c1)C(=O)O; Phe(4-CF3) = N[C@@H](Cc1ccc(C(F)(F)F)cc1)C(=O)O; Trp(5-F) = N[C@@H](Cc1c[nH]c2ccc(F)cc12)C(=O)O; S7 = C[C@@](CCCCCC=[*:3])(N[*:1])C(=O)[*:2]; Bip = N[C@@H](Cc1ccc(-c2ccccc2)cc1)C(=O)O; αAllylPro = C=CC[C@@]1(C(=O)O)CCCN1; R8 = C=CCCCCCC[C@@](C)(N)C(=O)O; S8 = C=CCCCCCC[C@](C)(N)C(=O)O; Nle = CCCC[C@H](N)C(=O)O; Aib = CC(C)(N)C(=O)O

What was measured:
[1] = biological target: T1, full-length beta-Catenin (Uniprot ID P35222) (Homo sapiens (Human), UniProt P35222 2-781); test: AlphaScreen competition; full-length beta-catenin with biotin-TCF4(10-53) probe as competitor
T1 construct: the AlphaScreen assay uses a Histidine (Nickel Chelate) detection kit, so a His tag is likely there; also called B-Catenin; bCat
T1 sequence: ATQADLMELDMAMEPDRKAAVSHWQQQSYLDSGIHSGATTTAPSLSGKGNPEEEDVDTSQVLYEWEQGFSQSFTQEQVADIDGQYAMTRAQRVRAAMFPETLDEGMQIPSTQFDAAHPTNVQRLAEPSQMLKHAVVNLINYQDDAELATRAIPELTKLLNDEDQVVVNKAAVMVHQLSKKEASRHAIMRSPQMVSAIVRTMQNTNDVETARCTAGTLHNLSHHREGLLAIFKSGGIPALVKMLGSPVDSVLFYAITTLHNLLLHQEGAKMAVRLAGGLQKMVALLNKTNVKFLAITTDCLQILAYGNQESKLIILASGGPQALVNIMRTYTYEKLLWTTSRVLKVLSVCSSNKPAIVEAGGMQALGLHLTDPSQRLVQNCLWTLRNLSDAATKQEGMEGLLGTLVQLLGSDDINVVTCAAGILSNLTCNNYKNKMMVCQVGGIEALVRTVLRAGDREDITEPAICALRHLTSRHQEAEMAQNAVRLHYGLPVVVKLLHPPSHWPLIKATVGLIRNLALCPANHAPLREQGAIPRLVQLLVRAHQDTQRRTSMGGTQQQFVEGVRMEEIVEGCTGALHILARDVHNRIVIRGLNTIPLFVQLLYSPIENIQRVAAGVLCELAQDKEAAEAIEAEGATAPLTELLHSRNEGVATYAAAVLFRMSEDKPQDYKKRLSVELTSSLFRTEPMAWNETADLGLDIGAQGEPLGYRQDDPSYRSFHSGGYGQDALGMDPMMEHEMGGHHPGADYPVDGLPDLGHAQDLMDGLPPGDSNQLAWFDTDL
Method: (§1) Equal volume of the titrated peptide was added to the plate and incubated for 15 minutes at 20° C. Then 4 uL of donor and 4 uL acceptor beads at 10 ug/mL were added to the plate, for a 16 uL reaction pool and protected from light for 60 minutes at 20° C. prior to read. Reads were performed on a CLARIOstar plate reader (BMG Labtech) in duplicate, and data were fitted to a 1:1 binding model with hill slope using an in-house script. All provided concentrations are final concentrations.

[2] = biological target: T2, full-length beta-Catenin (Uniprot ID P35222) (Homo sapiens (Human), UniProt P35222 2-781); test: AlphaScreen competition: full-length beta-catenin + biotin-TCF4(10-53) probe, peptide titrated
T2 construct: The AlphaScreen assay used a Histidine (Nickel Chelate) detection kit, so a His tag is likely, but no tag is described; also called B-Catenin; bCat
T2 sequence: T1 sequence
Method: as §1

EC50 [1]: ≥ 10 µM
B1: I-145 (peptide)
peptide: Ac-[αAllylPro]DA[B5]DEAAFV[S8]F[Bip]Q-NH2
modifications: staple 1-4, 4-11
notes: stapled peptide composition

EC50 [1]: ≥ 10 µM
B2: I-162 (peptide)
peptide: Ac-FDA[R8]DDAAFV[PyrS″]EWQ-NH2
modifications: staple 4-11; not fully specified; printed as Ac-Phe-Asp-Ala-R8-Asp-Asp-Ala-Ala-Phe-Val-PyrS-Glu-Trp-Gln-NH2
notes: stapled peptide

EC50 [1]: 5.5 µM
B3: I-151 (peptide)
peptide: Ac-DI[RdN]DDAAFQ[S7]FW-NH2
modifications: staple 3-10
notes: stapled peptide composition

EC50 [1]: 4.67 µM
B4: I-170 (peptide)
peptide: Ac-[αAllylPro]DA[B5]DEAAFV[S8]F[Trp(5-cPr)]Q-NH2
modifications: staple 1-4, 4-11
notes: stapled peptide

EC50 [1]: 4.06 µM
B5: I-157 (peptide)
peptide: Ac-[Aib]DA[R8]DEAAFV[PyrS]FWQ-NH2
modifications: staple 4-11; also: earlier-eluting staple isomer
notes: stapled peptide

EC50 [1]: 2.17 µM
B6: I-158 (peptide)
peptide: Ac-[Aib]DA[R8]DEAAFV[PyrS(3)]FWQ-NH2
modifications: staple 4-11; also: later-eluting staple isomer
notes: stapled peptide

EC50 [2]: 2.83 µM
B7: I-248 (peptide)
peptide: Ac-[αAllylPro]DA[B5(4)]DDAAFV[S8][Phe(3-CF3)]WQ-NH2
modifications: staple 1-4, 4-11
notes: Stapled peptide composition; also called Ac-PL3-Asp-Ala-B5-Asp-Asp-Ala-Ala-Phe-Val-S8-3F3MeF-Trp-Gln-NH2

EC50 [1]: 7.37 µM
B8: I-142 (peptide)
peptide: Ac-[αAllylPro]DA[B5(4)]DEAAFV[S8]F[6F1NapA]Q-NH2
modifications: staple 1-4, 4-11
notes: stapled peptide composition

EC50 [1]: 5.35 µM
B9: I-159 (peptide)
peptide: Ac-[Aib]DA[R8]DEAAFV[PyrS″]FW[Aib]-NH2
modifications: staple 4-11; not fully specified; printed as Ac-Aib-Asp-Ala-R8-Asp-Glu-Ala-Ala-Phe-Val-PyrS-Phe-Trp-Aib-NH2
notes: stapled peptide

EC50 [1]: 1.23 µM
B10: I-165 (peptide)
peptide: Ac-[αAllylPro]DA[B5(16)]DEAAFV[S8]F[Trp(5-OMe)]Q-NH2
modifications: staple 1-4, 4-11
notes: stapled peptide composition

EC50 [1]: 1.22 µM
B11: I-146 (peptide)
peptide: Ac-[αAllylPro]DA[B5(4)]DEAAFV[S8]F[Trp(5-F)]Q-NH2
modifications: staple 1-4, 4-11
notes: stapled peptide composition

EC50 [1]: ≥ 10 µM
B12: I-161 (peptide)
peptide: Ac-FDA[R8]DDAAFV[PyrS]EWQ-NH2
modifications: staple 4-11; not fully specified; printed as Ac-Phe-Asp-Ala-R8-Asp-Asp-Ala-Ala-Phe-Val-PyrS-Glu-Trp-Gln-NH2
notes: stapled peptide

EC50 [1]: 1.94 µM
B13: I-150 (peptide)
peptide: DIXDDAAFQXFWH
modifications: not fully specified; as printed: Ac-Asp-Ile-RdN-Asp-Asp-Ala-Ala-Phe-Gln-S7-Phe-Trp-His-NH2; N-terminal acetyl, C-terminal amide; RdN(3), S7(10); staple RdN-S7 by olefin metathesis
notes: stapled peptide

EC50 [1]: 9.75 µM
B14: I-163 (peptide)
peptide: Ac-FDA[R8]DDAAFS[PyrS″]FWQ-NH2
modifications: staple 4-11; not fully specified; printed as Ac-Phe-Asp-Ala-R8-Asp-Asp-Ala-Ala-Phe-Ser-PyrS-Phe-Trp-Gln-NH2
notes: stapled peptide

EC50 [2]: 3.69 µM
B15: I-252 (peptide)
peptide: Ac-[αAllylPro]DA[B5(4)]DDAAFV[S8][Phe(4-CF3)]WQ-NH2
modifications: staple 1-4, 4-11
notes: Stapled peptide composition; also called Ac-PL3-Asp-Ala-B5-Asp-Asp-Ala-Ala-Phe-Val-S8-4F3MeF-Trp-Gln-NH2

EC50 [1]: 9.21 µM
B16: I-169 (peptide)
peptide: Ac-[αAllylPro]DA[B5]DEAAFV[S8]F[Trp(5-CF3)]Q-NH2
modifications: staple 1-4, 4-11
notes: stapled peptide composition

EC50 [1]: 3.24 µM
B17: I-160 (peptide)
peptide: Ac-[Aib]DA[R8]DEAAFV[PyrS]FW[Aib]-NH2
modifications: staple 4-11; not fully specified; printed as Ac-Aib-Asp-Ala-R8-Asp-Glu-Ala-Ala-Phe-Val-PyrS-Phe-Trp-Aib-NH2
notes: stapled peptide

EC50 [1]: ≥ 10 µM
B18: I-139 (peptide)
peptide: Ac-[αAllylPro]DA[B5(21)]D[Nle]AAFV[S8]FWQ-NH2
modifications: staple 1-4, 4-11; not fully specified; printed as Ac-PL3-Asp-Ala-B5-Asp-nLeu-Ala-Ala-Phe-Val-S8-Phe-Trp-Gln-NH2
notes: stapled peptide

EC50 [2]: 3.69 µM
B19: I-253 (peptide)
peptide: Ac-[αAllylPro]DA[B5(4)]DDAAFV[S8][Phe(4-CF3)]WQ-NH2
modifications: staple 1-4, 4-11
notes: as for B15

EC50 [1]: 4.18 µM
B20: I-156 (peptide)
peptide: Ac-ADA[RdN]DEAAFQ[S7]FWH-NH2
modifications: staple 4-11
notes: stapled peptide composition

EC50 [2]: 4.91 µM
B21: I-243 (peptide)
peptide: Ac-[αAllylPro]DA[B5(5)]DDAA[Phe(4-CF3)]V[S8]FWQ-NH2
modifications: staple 1-4, 4-11; not fully specified; printed as Ac-PL3-Asp-Ala-B5-Asp-Asp-Ala-Ala-4F3MeF-Val-S8-Phe-Trp-Gln-NH2
notes: Stapled peptide composition; also called Ac-PL3-Asp-Ala-B5-Asp-Asp-Ala-Ala-4F3MeF-Val-S8-Phe-Trp-Gln-NH2

EC50 [1]: 3.3 µM
B22: I-136 (peptide)
peptide: XDAXDEAAFVXFXQ
modifications: not fully specified; as printed: Ac-PL3-Asp-Ala-B5-Asp-Glu-Ala-Ala-Phe-Val-S8-Phe-aMeW-Gln-NH2; N-terminal acetyl, C-terminal amide; PL3(1), B5(4), S8(11), aMeW(13); staples PL3-B5 and B5-S8 by olefin metathesis
notes: stapled peptide

EC50 [1]: 6.2 µM
B23: I-167 (peptide)
peptide: Ac-[αAllylPro]DA[B5(16)]DEAAFV[S8]F[H2Trp]Q-NH2
modifications: staple 1-4, 4-11
notes: stapled peptide

EC50 [1]: 2.07 µM
B24: I-171 (peptide)
peptide: XDAXDEAAFVXFXQ
modifications: not fully specified; as printed: Ac-PL3-Asp-Ala-B5-Asp-Glu-Ala-Ala-Phe-Val-S8-Phe-5CpW-Gln-NH2; N-terminal acetyl, C-terminal amide; PL3(1), B5(4), S8(11), 5CpW(13); staples PL3-B5 and B5-S8 by olefin metathesis
notes: stapled peptide

EC50 [2]: 2.83 µM
B25: I-249 (peptide)
peptide: Ac-[αAllylPro]DA[B5(4)]DDAAFV[S8][Phe(3-CF3)]WQ-NH2
modifications: staple 1-4, 4-11
notes: as for B7

EC50 [1]: 3.61 µM
B26: I-164 (peptide)
peptide: Ac-FDA[R8]DDAAFS[PyrS]FWQ-NH2
modifications: staple 4-11
notes: stapled peptide

EC50 [1]: 1.41 µM
B27: I-137 (peptide)
peptide: XDAXDEAAFVXFXQ
modifications: not fully specified; as printed: Ac-PL3-Asp-Ala-B5-Asp-Glu-Ala-Ala-Phe-Val-S8-Phe-aMeW-Gln-NH2; N-terminal acetyl, C-terminal amide; PL3(1), B5(4), S8(11), aMeW(13); staples PL3-B5 and B5-S8 by olefin metathesis
notes: stapled peptide

EC50 [1]: 1.79 µM
B28: I-149 (peptide)
peptide: DIXDDAAFQXFWH
modifications: not fully specified; as printed: Ac-Asp-Ile-RdN-Asp-Asp-Ala-Ala-Phe-Gln-S7-Phe-Trp-His-NH2; N-terminal acetyl, C-terminal amide; RdN(3), S7(10); staple RdN-S7 by olefin metathesis
notes: stapled peptide

EC50 [1]: 5.64 µM
B29: I-168 (peptide)
peptide: Ac-[αAllylPro]DA[B5(16)]DEAAFV[S8]F[H2Trp]Q-NH2
modifications: staple 1-4, 4-11
notes: stapled peptide

EC50 [1]: ≥ 10 µM
B30: I-138 (peptide)
peptide: Ac-[αAllylPro]DA[B5(4)]D[Nle]AAFV[S8]FWQ-NH2
modifications: staple 1-4, 4-11; not fully specified; printed as Ac-PL3-Asp-Ala-B5-Asp-nLeu-Ala-Ala-Phe-Val-S8-Phe-Trp-Gln-NH2
notes: stapled peptide
